The record followed here is PMC8053116.

The experiment concerns the target multi-tRNA synthetase complex without ArgRS and GlnRS (human (endogenous in HEK 293T)) (UniProt P56192). The experiment is described as follows: SEC; lysate of wildtype 293T cells (20 mM Tris-HCl pH 7.5, 1 mM EDTA, 150 mM NaCl, 0.1% IGEPAL CA-630) on Superdex 200 in Dulbecco's PBS; 1 ml fractions analysed by western blot; intact MSC in fractions 10-12. On the technique in general: Size exclusion chromatography separates by hydrodynamic size, large species first.
Sequence of UniProt P56192 (P56192 whole entry, looked up, one chain of several): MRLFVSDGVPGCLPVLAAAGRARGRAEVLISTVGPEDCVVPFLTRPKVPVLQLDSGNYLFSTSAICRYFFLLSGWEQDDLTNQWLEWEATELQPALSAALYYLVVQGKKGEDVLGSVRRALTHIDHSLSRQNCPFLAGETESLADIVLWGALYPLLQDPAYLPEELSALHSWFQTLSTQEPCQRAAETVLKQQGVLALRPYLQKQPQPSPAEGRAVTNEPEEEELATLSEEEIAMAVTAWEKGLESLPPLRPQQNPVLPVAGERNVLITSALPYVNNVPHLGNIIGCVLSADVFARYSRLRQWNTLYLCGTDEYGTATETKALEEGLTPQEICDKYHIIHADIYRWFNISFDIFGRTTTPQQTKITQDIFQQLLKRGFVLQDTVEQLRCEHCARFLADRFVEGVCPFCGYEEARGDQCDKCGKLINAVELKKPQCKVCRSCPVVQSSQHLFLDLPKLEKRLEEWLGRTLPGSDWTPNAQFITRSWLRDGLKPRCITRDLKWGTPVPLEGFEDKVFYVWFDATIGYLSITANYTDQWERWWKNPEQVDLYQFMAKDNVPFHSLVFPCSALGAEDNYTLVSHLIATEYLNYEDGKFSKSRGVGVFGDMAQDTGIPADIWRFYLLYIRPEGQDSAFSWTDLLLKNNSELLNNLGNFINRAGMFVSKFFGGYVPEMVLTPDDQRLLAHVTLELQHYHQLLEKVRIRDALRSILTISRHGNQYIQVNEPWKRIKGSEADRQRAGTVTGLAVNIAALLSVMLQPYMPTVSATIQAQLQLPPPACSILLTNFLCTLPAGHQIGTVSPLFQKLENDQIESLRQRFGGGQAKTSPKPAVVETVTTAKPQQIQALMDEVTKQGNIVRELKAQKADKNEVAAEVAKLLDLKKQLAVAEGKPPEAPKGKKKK

B1: arginyl-tRNA synthetase, full-length (enzyme)
chain: MDVLVSECSARLLQQEEEIKSLTAEIDRLKNCGCLGASPNLEQLQEENLKLKYRLNILRKSLQAERNKPTKNMINIISRLQEVFGHAIKAAYPDLENPPLLVTPSQQAKFGDYQCNSAMGISQMLKTKEQKVNPREIAENITKHLPDNECIEKVEIAGPGFINVHLRKDFVSEQLTSLLVNGVQLPALGENKKVIVDFSSPNIAKEMHVGHLRSTIIGESISRLFEFAGYDVLRLNHVGDWGTQFGMLIAHLQDKFPDYLTVSPPIGDLQVFYKESKKRFDTEEEFKKRAYQCVVLLQGKNPDITKAWKLICDVSRQELNKIYDALDVSLIERGESFYQDRMNDIVKEFEDRGFVQVDDGRKIVFVPGCSIPLTIVKSDGGYTYDTSDLAAIKQRLFEEKADMIIYVVDNGQSVHFQTIFAAAQMIGWYDPKVTRVFHAGFGVVLGEDKKKFKTRSGETVRLMDLLGEGLKRSMDKLKEKERDKVLTAEELNAAQTSVAYGCIKYADLSHNRLNDYIFSFDKMLDDRGNTAAYLLYAFTRIRSIARLANIDEEMLQKAARETKILLDHEKEWKLGRCILRFPEILQKILDDLFLHTLCDYIYELATAFTEFYDSCYCVEKDRQTGKILKVNMWRMLLCEAVAAVMAKGFDILGIKPVQRM
B1: the percent of ArgRS not bound to the MSC was found to be 40%.
